Experimental findings from publication PMC4670554 (Nuclear medicine and biology, 2014) are described below.

Series [1] in a line: in vivo. Further details: species or system mice. The conditions noted are these: female, athymic nu/nu nude, mouse, total radioactivity.
The test system of series [2] is U87MG gliobastoma tumors. Put plainly: in vivo. Further details: species or system mice. The conditions noted are these: mouse.

For `N=C(N)NCCC[C@@H]1NC(=O)[C@H](CCCCNC(=S)Nc2ccc(CCCCCC(CN3CCN(CC(=O)O)CCN(CC(=O)O)CC3)N(CC(=O)O)CC(=O)O)cc2)NC(=O)[C@@H](Cc2ccc(O)cc2)NC(=O)[C@H](CC(=O)O)NC(=O)CNC1=O` (stereo partly shown) [^177Lu-5p-C-NETA-c(RGDyK), metal not drawn], the tissue uptake – broadly, the share of the injected amount in each gram of the tissue – at 4 h in series [1] (100 ug, Tumor uptake, blocked) is 0.6 ± 0.14 %ID/g; in series [1] (Tumor uptake), 1.15 ± 0.27 %ID/g. The tissue uptake at 1 h came to 1.59 ± 0.22 %ID/g in series [1] (Liver uptake) and 0.46 ± 0.06 %ID/g in series [1] (Radioactivity in the blood). The tissue uptake at 24 h in series [1] (Liver uptake) was 0.32 ± 0.06 %ID/g; in series [1] (Tumor uptake), 10.7 ± 0.38 %ID/g. In addition, the “Radioactivity in the blood” value in series [2] is on record as “completely cleared”.
